From patent US20250277022A1 (STAIDSON BEIJING BIOPHARMACEUTICALS, published 2025)
Substitutions are numbered along the chain they refer to. Like-named read-outs stand apart in the source and are kept apart here. Each block holds one binder with its values, some of them ahead of it.

What was measured:
human TSLP [1] = biological target: T1, human TSLP (human, UniProt Q969D9 29-159); experiment: ELISA, plate coated with human TSLP, test antibodies as human IgG1
T1 construct: used biotinylated in some assays; also called hTSLP; recombinant human TSLP
Experimental: (§1) ELISA Screening: Monoclonal scFv antibodies were selected and subjected to ligand binding assays. The first assay was designed to identify scFv antibodies that bound human TSLP and/or cynomolgus TSLP. Briefly, a 96-well plate was coated with human TSLP or cynomolgus TSLP in PBS at 0.1 μg/well and left overnight at 4° C. Before loading the scFv antibodies, the plates were washed with TBST, blocked for 1-2 hours at 37° C. using 5% milk and washed again with TBST. Each scFv sample was first diluted to 40 μg/mL, and 150 μL was added to the first row of wells. The 40 μg/mL scFv samples were then serially diluted at a 1:3 ratio and added to the remaining wells. After incubating for an hour at 37° C., followed by washing with TBST for 6 times, 100 μl of the secondary antibody (HRP labeled mouse anti-flag (1:2500)) was added to each well. After incubation for an hour under 37° C., the plate was washed for 3 times using TBST. TMB was then added at 100 μL/well and incubated for 10-20 minutes at 37° C. 2 M H₂SO₄ was used to stop the reaction. The ELISA results (OD405) were then analyzed and the binding curves were generated by PRISM.

human TSLP [2] = biological target: T1, human TSLP; experiment: cell-based or functional assay
human TSLP [3] = biological target: T1, human TSLP; experiment: cell-based or functional assay; remark: listed apart in the source
human TSLP [4] = biological target: T1, human TSLP; experiment: cell-based or functional assay; remark: listed apart in the source
cynomolgus monkey TSLP [5] = biological target: T2, cynomolgus monkey TSLP (cynomolgus monkey, UniProt A0A7N9CAT7 29-159); experiment: solution equilibrium titration, MSD electrochemiluminescence, IgG1
T2 construct: also called cynomolgus TSLP; recombinant cynomolgus monkey TSLP

TSLP-His = biological target: T3, TSLP-His (human, UniProt Q969D9 29-159, limits assumed); experiment: HTRF competition: blocking of TSLP-his binding to HEK293-Flag-hTSLPR-IL7Ra cells, IgG1
T3 construct: also called his-tagged TSLP; not shown: His-tag

cynomolgus monkey TSLP [6] = biological target: T2, cynomolgus monkey TSLP; experiment: ELISA, plate coated with cynomolgus monkey TSLP, test antibodies as human IgG1
Experimental: as §1

human TSLP [7] = biological target: T1, human TSLP; experiment: solution equilibrium titration, MSD electrochemiluminescence, IgG1
Experimental: Briefly, according to the manufacturer's instructions, the streptavidin MSD plates were blocked 30 mins at RT with PBS with 3% BSA (assay buffer). Serially diluted human TSLP with the concentration from 0 to 50 nM was equilibrated with the tested antibodies with the concentration of 10 pM overnight at RT, wells without antigen were used to determine Bmax values; wells containing only assay buffer were used to determine background. 50 μL of biotinylated human TSLP was coated at 0.2 μg/mL in assay buffer for 30 mins at RT on streptavidin MSD plates. After washing with PBST for 3 times, 50 μL of the equilibrated samples were transferred to those plates and incubated for 30 mins at RT. […] After washing the MSD Plate with PBST for 3 times, 150 μL of MSD read buffer was added to each well, electrochemiluminescence signals of the plate was detected using a Sector Imager 6000 (Meso Scale Discovery, Gaithersburg, MD, USA).

human TSLP [8] = biological target: T1, human TSLP; experiment: cell-based or functional assay; remark: listed apart in the source
human TSLP [9] = biological target: T1, human TSLP; experiment: ELISA, plate coated with human TSLP, test antibodies as human IgG1; remark: listed apart in the source
Experimental: as §1

cynomolgus monkey TSLP [10] = biological target: T2, cynomolgus monkey TSLP; experiment: ELISA, plate coated with cynomolgus monkey TSLP, test antibodies as human IgG1; remark: listed apart in the source
Experimental: as §1

human TSLP [11] = biological target: T1, human TSLP; experiment: ELISA, biotin labeled full length TSLP on streptavidin plate; full length isoform TSLP, not short isoform
Experimental: Binding of anti-TSLP antibodies to short form TSLP was determined using an ELISA method. […] A rabbit serum was used as a negative control. Briefly, a 96-well plate was coated with 100 μl of 1 μg/mL streptavidin overnight. The plates were washed with PBST, then 100 μl of 1 μg/ml biotin labeled short TSLP or long TSLP was added to the plates, incubated at 37° C. for 1 hour. […] After incubating the plates for an hour at 37° C., followed by washing with PBST for 6 times, the secondary antibody anti-human-Fc-HRP or anti-rabbit-Fc-AP was added to each well. After incubation for an hour under 37° C., the plate was washed for 3 times using PBST. TMB or pNPP was then added at 100 μL/well and incubated for 10-20 minutes at room temperature. 2 M H₂SO₄ or 3 M NaOH was used to stop the reaction. The ELISA results were then analyzed and the binding curves were generated by GraphPad Prism 5 software (GraphPad Software).

[12] = biological target: E. coli derived human TSLP (human, UniProt Q969D9 29-159, limits assumed); experiment: cell-based or functional assay
human IL-7 = biological target: T4, human IL-7 (human, UniProt P13232 26-177); experiment: ELISA on human IL-7
T4 construct: also called TSLP homologous protein IL-7
T4 sequence (looked up): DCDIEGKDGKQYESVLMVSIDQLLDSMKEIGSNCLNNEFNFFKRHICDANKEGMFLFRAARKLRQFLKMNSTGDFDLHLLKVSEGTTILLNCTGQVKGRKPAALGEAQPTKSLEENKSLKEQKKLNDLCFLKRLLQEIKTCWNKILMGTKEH

cynomolgus monkey TSLP [13] = biological target: T2, cynomolgus monkey TSLP; experiment: solution equilibrium titration, MSD electrochemiluminescence
cynomolgus monkey TSLP [14] = biological target: T2, cynomolgus monkey TSLP; experiment: ELISA, plate coated with cynomolgus monkey TSLP
human TSLP [15] = biological target: T1, human TSLP; experiment: cell-based or functional assay; remark: listed apart in the source
cynomolgus monkey TSLP [16] = biological target: T2, cynomolgus monkey TSLP; experiment: ELISA, plate coated with cynomolgus monkey TSLP, test antibodies as human IgG1; remark: listed apart in the source
Experimental: as §1

human TSLP [17] = biological target: T1, human TSLP; experiment: ELISA, plate coated with human TSLP, test antibodies as human IgG1; remark: listed apart in the source
Experimental: as §1

human TSLP [18] = biological target: T1, human TSLP; experiment: as above; remark: listed apart in the source
Experimental: as §1

cynomolgus monkey TSLP [19] = biological target: T2, cynomolgus monkey TSLP; experiment: ELISA, plate coated with cynomolgus monkey TSLP, test antibodies as human IgG1; remark: listed apart in the source
Experimental: as §1

T2 sequence (A0A7N9CAT7 entry or part of it): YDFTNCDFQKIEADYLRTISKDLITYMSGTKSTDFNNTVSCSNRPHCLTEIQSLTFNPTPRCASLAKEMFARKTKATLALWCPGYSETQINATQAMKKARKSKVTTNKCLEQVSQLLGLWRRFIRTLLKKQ

B2: TSLP-01 (antibody, V domains shown)
VH: QVQLQESGPGLVKPSETLSLTCAVSGYSISSGYGWSWIRQPPGKGLEWIGYISYYGSISYNPSLKSRVTISRDTSKNQFSLKLSSVTAADTAVYYCARTNLLYFDSWGQGTLVTVSS
VL: EIVMTQSPATLSLSPGERATLSCRASQSVSNNLAWYQQKPGQAPRLLIYDASSRATGIPARFSGSGSGTDFTLTISSLEPEDFAVYYCQQYSDWPQYTFGQGTKVEIK
notes: also called parent antibody TSLP-01
- IC50, inhibition of human TSLP-induced Stat5 activation (Stat5-luciferase reporter, Ba/F3 cells with hTSLPR and hIL7Ra) (human TSLP [8]): 0.0193 µg/mL
- EC50 (read off the curve) (human TSLP [9]): ~0.03 µg/mL
- EC50 (read off the curve) (cynomolgus monkey TSLP [10]): ~0.5 µg/mL
- EC50 (human TSLP [11]): 0.0335 µg/mL

B4: AMG157 (antibody, V domains shown)
VH: QMQLVESGGGVVQPGRSLRLSCAASGFTFRTYGMHWVRQAPGKGLEWVAVIWYDGSNKHYADSVKGRFTITRDNSKNTLNLQMNSLRAEDTAVYYCARAPQWELVHEAFDIWGQGTMVTVSS
VL: SYVLTQPPSVSVAPGQTARITCGGNNLGSKSVHWYQQKPGQAPVLVVYDDSDRPSWIPERFSGSNSGNTATLTISRGEAGDEADYYCQVWDSSSDHVVFGGGTKLTVLG
- Kd (cynomolgus monkey TSLP [13]): 0.0176 nM
- EC50 (read off the curve) (cynomolgus monkey TSLP [14]): ~0.5 µg/mL

B5: TSLP-03 (antibody, V domains shown)
VH: EVQLVESGGGLVQPGGSLRLSCAASGFTFSNYDMTWVRQAPGKGLEWVSSITFASSYIYYADSVKGRFTISRDNAKNSLSLQMNSLRAEDTAVYYCTRGGGAYHGGSLDVWGQGVLVTVSS
VL: DIVMTQTPLSLSVTPGEPASISCRSSQSLLHINGYTYLHWYLQKPGQSPQLLIYLVSHRASGVPDRFSGSGSDTDFTLKISRVEAEDVGVYYCEQTLQTPYSFGGGTKVEIK
notes: also called parent antibody TSLP-03
- IC50, inhibition of human TSLP-induced Stat5 activation (Stat5-luciferase reporter, Ba/F3 cells with hTSLPR and hIL7Ra) (human TSLP [15]): 0.0367 µg/mL
- IC50, inhibition of TSLP induced proliferation of Ba/F3-TSLPR-IL7Ra cells (CellTiter-Glo) (human TSLP [2]): 0.198 µg/mL
- EC50 (read off the curve) (cynomolgus monkey TSLP [16]): ~0.9 µg/mL
- EC50 (read off the curve) (human TSLP [17]): ~0.08 µg/mL
- IC50 (TSLP-His): 0.494 µg/mL

B7: TSLP-04 (antibody, V domains shown)
V domain 1: QEQLVQSGDEVKKPGASVKVSCKSSGFTFGSYAISWVRQAPGQGLEWMGMLVPLLGVTNYAEKFQGRVTITADPSTTTTSMELSSLRSEDTAVYYCARGGSNYLYWYFDLWGPGTPITVSS
V domain 2: QSAPIQPRSVSGSPGQSVTISCTGTSSDIGGYNRISWYQQHPGKAPKLMIYDVSKRPSGVSDRFSGSKSGNTASLTISGLQAEDEADYYCSSYAGTDTFVLFGGGTQLTIV
notes: also called parent antibody TSLP-04
- IC50, inhibition of human TSLP-induced Stat5 activation (Stat5-luciferase reporter, Ba/F3 cells with hTSLPR and hIL7Ra) (human TSLP [15]): 0.0364 µg/mL
- IC50, inhibition of TSLP induced proliferation of Ba/F3-TSLPR-IL7Ra cells (CellTiter-Glo) (human TSLP [2]): 0.15 µg/mL
- EC50 (read off the curve) (human TSLP [18]): ~0.1 µg/mL

Results, then the binder that gave them:

- EC50 (read off the curve) (human TSLP [1]): ~0.08 µg/mL
- IC50, inhibition of TSLP induced proliferation of Ba/F3-TSLPR-IL7Ra cells (CellTiter-Glo) (human TSLP [2]): 0.0131 µg/mL
- IC50, inhibition of human TSLP induced TARC release from human PBMCs (TARC ELISA) (human TSLP [3]): 0.000365 µg/mL
- IC50, inhibition of human TSLP-induced Stat5 activation (Stat5-luciferase reporter, Ba/F3 cells with hTSLPR and hIL7Ra) (human TSLP [4]): 0.00257 µg/mL
- Kd (cynomolgus monkey TSLP [5]): 0.00447 nM
- IC50 (TSLP-His): 0.297 µg/mL
- EC50 (read off the curve) (cynomolgus monkey TSLP [6]): ~0.7 µg/mL
- Kd (human TSLP [7]): 0.0211 nM
B1: TSLP-0202 (antibody, V domains shown)
VH: QVQLVQSGAEVKKPGSSVKVSCKASGFTFGSYGINWVRQAPGQGLEWMGVIVPLVGVTIYAEKFQGRVTITADESTSTAYMELSSLRSEDTAVYYCARGQEYFYWYFDLWGQGTLVTVSS
VL: QSALTQPPSASGSPGQSVTISCSGSSSDIGGYNRVSWYQQHPGKAPKLMIYDVSKRPSGVPDRFSGSKSGNTASLTVSGLQAEDEADYYCSSYAGTDTFILFGGGTKLTVL
notes: also called TSLP-0202-IgG1

- IC50, inhibition of human TSLP-induced Stat5 activation (Stat5-luciferase reporter, Ba/F3 cells with hTSLPR and hIL7Ra) (human TSLP [8]): 0.00884 µg/mL
- EC50 (read off the curve) (human TSLP [9]): ~0.04 µg/mL
- IC50, inhibition of TSLP induced proliferation of Ba/F3-TSLPR-IL7Ra cells (CellTiter-Glo) (human TSLP [2]): 0.0136 µg/mL
- IC50, inhibition of human TSLP induced TARC release from human PBMCs (TARC ELISA) (human TSLP [3]): 0.000758 µg/mL
- EC50 (read off the curve) (cynomolgus monkey TSLP [10]): ~0.7 µg/mL
- IC50, inhibition of E. coli derived human TSLP induced Stat5 activation [12]: 0.00259 µg/mL
- Kd (cynomolgus monkey TSLP [5]): 0.0254 nM
- IC50 (TSLP-His): 0.116 µg/mL
- binding result (human IL-7): no binding
- Kd (human TSLP [7]): 0.044 nM
B3: TSLP-0107 (antibody, V domains shown)
VH: B2 VH with A23T, R72V
VL: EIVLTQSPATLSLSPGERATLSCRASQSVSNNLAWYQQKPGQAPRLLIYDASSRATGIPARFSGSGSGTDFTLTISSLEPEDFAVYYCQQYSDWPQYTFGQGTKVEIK
notes: also called TSLP-0107-IgG1

- EC50 (read off the curve) (human TSLP [17]): ~0.06 µg/mL
B6: TSLP-0302 (antibody, V domains shown)
VH: B5 VH with D33G, H104Y
VL: B5 VL with I32S, N33Y, H58Y, S102T

- IC50, inhibition of human TSLP-induced Stat5 activation (Stat5-luciferase reporter, Ba/F3 cells with hTSLPR and hIL7Ra) (human TSLP [15]): 0.0195 µg/mL
- IC50, inhibition of TSLP induced proliferation of Ba/F3-TSLPR-IL7Ra cells (CellTiter-Glo) (human TSLP [2]): 0.0195 µg/mL
- EC50 (read off the curve) (human TSLP [18]): ~0.1 µg/mL
- EC50 (read off the curve) (cynomolgus monkey TSLP [19]): ~2 µg/mL
- IC50 (TSLP-His): 0.333 µg/mL
B8: TSLP-0401 (antibody, V domains shown)
V domain 1: B7 V domain 1 with L51I, V52I, N59D, S101T
V domain 2: B7 V domain 2 with I35V, D52E, S92A
